One substance from patent publication US20230061804A1 can be followed below.

This assay deals with mRFP1-ENLYFQS-(r8)8-Tail. Briefly: live imaging of co-transfected HaCATs; client signal inside against outside KG-like granules.

The substance sfGFP-dTEVP yielded a partition coefficient (P) of 2.1.
